Test results published in IntAct's records for PubMed 26977880.

B1: Tumor necrosis factor ligand superfamily member 14 (Homo sapiens), O43557 (parent)
chain: MEESVVRPSVFVVDGQTDIPFTRLGRSHRRQSCSVARVGLGLLLLLMGAGLAVQGWFLLQLHWRLGEMVTRLPDGPAGSWEQLIQERRSHEVNPAAHLTGANSSLTGSGGPLLWETQLGLAFLRGLSYHDGALVVTKAGYYYIYSKVQLGGVGCPLGLASTITHGLYKRTPRYPEELELLVSQQSPCGRATSSSRVWWDSSFLGGVVHLEAGEKVVVRVLDERLVRLRDGTRSYFGAFMV

Variants of: B1
Conditions: with tnr3_mouse Ltbr

Variant	effect of a mutation on the interaction
A138T;S160G;D221G;E222K	causing an interaction
